Laboratory results published in paper PMC5786021, “A dynamic allosteric pathway underlies Rad50 ABC ATPase function in DNA repair” (Scientific Reports, 2018).

Tests used:
Assay in all cases: reconstitution and co-purification by ion-exchange chromatography; Rad50^NBD mixed with a slight excess of Mre11^HLH, heated at 60 °C for 10 min, cooled, complex purified on a HiTrap SP HP column; complex then used for methyl-TROSY NMR at 50 °C
Conditions in all cases: both partners purified
[1] = target: T1, P. furiosus Rad50^NBD (V156M) (P. furiosus, UniProt P58301 1-195; P58301 709-882, V156M)
T1 construct: Rad50, Pyrococcus furiosus, N-terminal ABC-ATPase sub-domain, residues 1-195; flexible linker that replaces the coiled-coil and Zn-hook; Rad50, Pyrococcus furiosus, C-terminal ABC-ATPase sub-domain, residues 709-882; Point mutation made by Quikchange in the Rad50^NBD construct; source: E. coli BL21(DE3) C41, purified (HisTrap, HiTrap SP, Superdex 200)
T1 sequence (P58301 other isoform, or with tags, fused parts or gaps V156M | V156M | V156M V156M): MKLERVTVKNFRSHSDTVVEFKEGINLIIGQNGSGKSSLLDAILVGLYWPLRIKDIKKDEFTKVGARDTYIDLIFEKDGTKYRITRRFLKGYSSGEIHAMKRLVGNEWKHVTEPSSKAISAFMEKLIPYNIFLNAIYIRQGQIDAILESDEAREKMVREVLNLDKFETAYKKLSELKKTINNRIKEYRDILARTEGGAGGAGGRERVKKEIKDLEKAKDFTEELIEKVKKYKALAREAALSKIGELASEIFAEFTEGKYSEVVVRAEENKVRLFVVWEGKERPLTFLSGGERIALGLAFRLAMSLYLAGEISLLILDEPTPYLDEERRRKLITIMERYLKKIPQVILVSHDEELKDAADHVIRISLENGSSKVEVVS

[2] = target: T2, P. furiosus Rad50^NBD (V157M) (P. furiosus, UniProt P58301 1-195; P58301 709-882, V157M)
T2 construct: Rad50, Pyrococcus furiosus, N-terminal ABC-ATPase sub-domain, residues 1-195; flexible linker that replaces the coiled-coil and Zn-hook; Rad50, Pyrococcus furiosus, C-terminal ABC-ATPase sub-domain, residues 709-882; Point mutation made by Quikchange in the Rad50^NBD construct; source: E. coli BL21(DE3) C41, purified (HisTrap, HiTrap SP, Superdex 200)
T2 sequence (P58301 other isoform, or with tags, fused parts or gaps V157M | V157M | V157M V157M): as the sequence (P58301 other isoform, or with tags, fused parts or gaps V156M | V156M | V156M V156M) above, with M156V, V157M counted along it

[3] = target: T3, P. furiosus Rad50^NBD (V160M) (P. furiosus, UniProt P58301 1-195; P58301 709-882, V160M)
T3 construct: Rad50, Pyrococcus furiosus, N-terminal ABC-ATPase sub-domain, residues 1-195; flexible linker that replaces the coiled-coil and Zn-hook; Rad50, Pyrococcus furiosus, C-terminal ABC-ATPase sub-domain, residues 709-882; Point mutation made by Quikchange in the Rad50^NBD construct; source: E. coli BL21(DE3) C41, purified (HisTrap, HiTrap SP, Superdex 200)
T3 sequence (P58301 other isoform, or with tags, fused parts or gaps V160M | V160M | V160M V160M): as the sequence (P58301 other isoform, or with tags, fused parts or gaps V156M | V156M | V156M V156M) above, with M156V, V160M counted along it

[4] = target: T4, P. furiosus Rad50^NBD (R805E) (P. furiosus, UniProt P58301 1-195; P58301 709-882, R805E)
T4 construct: Rad50, Pyrococcus furiosus, N-terminal ABC-ATPase sub-domain, residues 1-195; flexible linker that replaces the coiled-coil and Zn-hook; Rad50, Pyrococcus furiosus, C-terminal ABC-ATPase sub-domain, residues 709-882; Point mutation made by Quikchange in the Rad50^NBD construct; also called basic switch mutant; source: E. coli BL21(DE3) C41, purified (HisTrap, HiTrap SP, Superdex 200)
T4 sequence (P58301 other isoform, or with tags, fused parts or gaps R805E | R805E | R805E R805E): as the sequence (P58301 other isoform, or with tags, fused parts or gaps V156M | V156M | V156M V156M) above, with M156V, R300E counted along it

Measured: binding result

B1: P. furiosus Mre11 helix-loop-helix domain (Mre11^HLH, aa344-426) (domain or fragment)
chain: not shown
notes: Mre11, Pyrococcus furiosus, helix-loop-helix domain, residues 344-426, sub-cloned from codon optimized full-length Pf Mre11; Protonated (unlabelled) in the NMR samples; source: E. coli BL21(DE3) C41, purified (HisTrap, HiTrap Phenyl HP); not shown: NusA, N-terminal, cleaved; His6, N-terminal, cleaved
binds: all assays above
